Laboratory results taken from patent US20250186633A1, “METHODS FOR IMAGING INTEGRIN EXPRESSION AND FOR IMAGING SITES OF ENDOMETRIOSIS” (SERAC HEALTHCARE LTD, priority 2022, published 2025).
Starred links: 1 amine or outer side, 2 acyl side, 3 side chain; linkers in the order of their positions; H or OH if unused. Positions of bridges follow the written chain, without caps; N, C: chain ends. Residues, ends and D or L forms follow the SMILES beside them. Groups on a side chain read outwards from the residue. *: point of attachment. X1 = C/C(=N/O)C(C)(C)NCCC(CCNC(C)(C)/C(C)=N\O)CCN*; Glutaryl = O=C(CCCC(=O)[*:2])[*:1]; X2 = NC(=O)COCC(=O)NCCOCCOCCOCCN*

Tests used:
endometrial lesions = settings: rat, in vivo
Source text: (§1) A rat surgical model of endometriosis was used, together with immunocompromised mouse and isogenic mouse models—all 3 animal models of endometriosis are as described by Story, L. ILAR J., 45(2) 132-138 (2004).
(§2) The uptake of ^99mTc-maraciclatide was compared with that of ^99mTc-[…]. NC100667 is described by Edwards et al [D. Edwards, Nucl.Med.Biol., 35, 365-375 (2008)]. NC100667 is a negative control peptide, in which the arginine residue of the RGD binding motif of maraciclatide (NC100692) was replaced with an alanine residue. Thus, only one amino acid residue was changed—all other aspects of the agent were otherwise the same.

endometrial lesion = settings: mouse, in vivo
Source text: as §1, §2

endometriosis lesions = system: endometriosis lesions; set-up: species or system rat, mouse; settings: in vivo
Source text: as §1, §2

C/C(=N/O)C(C)(C)NCCC(CCNC(=O)CCCC(=O)NCCCC[C@@H]1NC(=O)CSC[C@@H](C(=O)NCCOCCOCCOCCNC(=O)COCC(N)=O)NC(=O)[C@H](Cc2ccccc2)NC(=O)[C@@H]2CSSC[C@H](NC1=O)C(=O)N[C@@H](CCCNC(=N)N)C(=O)NCC(=O)N[C@@H](CC(=O)O)C(=O)N2)CCNC(C)(C)/C(C)=N\O (stereo partly drawn) [^99mTc-maraciclatide, metal not drawn] ({CH2CO}-K([Glutaryl-X1])CRGDCFC-X2; disulfide 2-6; thioether N-8)
uptake in endometrial lesions versus control lesions of abdominal fat (endometrial lesions): higher compared to control lesions of abdominal fat
ratio of endometriotic lesion to blood (endometrial lesion): 4.0
ratio of endometriotic lesion to muscle (endometrial lesion): 8.3
retention in ovaries and uterine horns (endometrial lesion): ~35%
uptake in endometrial lesion, time course at 1, 2 or 3 weeks post implantation (endometrial lesion): greatest at one week post uterine horn inoculation
uptake and retention in animal models of endometriosis (endometriosis lesions): demonstrated in all experimental animal models of endometriosis
